Measured values from publication doi:10.1101/2022.07.27.501708 (bioRxiv, 2022).

B1: EH8 IgG (antibody, V domains shown)
VH: QVQLVQSGAEVKKPGASVKVSCKASGYTFSSYGISWVRQAPGQGLEWMGWISPYNGNTKYPQKFQGRVTMTTDTSTNTAYMELRSLRSDDTAVYYCARDLELGGGFDYWGQGTLVTVSS
VL: QSALTQPASVSGSPGQSITISCTGTSSDVGSYNLVSWYQQHPDKAPKFMIYEGTKRPSGVSNRFSGSKSGNTASLTISGLQAEDEADYYCCSYAGNSTWVFGGGTKLTVL
B2: EH3 IgG (antibody, V domains shown)
VH: EVQLVESGGGLVQPGGSLRLSCAASGITVSSNYMTWVRQAPGKGLEWVSVIYSGGSTFYADSVRGRFTISRDNSKNTLYLQMNSLRAEDTAVYYCARDLEMAGAFDIWGQGTMVTVSS
VL: not shown

Target: SARS-CoV-2 WT RBD (SPR analyte) (SARS-CoV-2, Wuhan-Hu-1, UniProt P0DTC2)
Experiment: SPR

| Binder | Kd [nM] | kon [M⁻¹ s⁻¹] |
| --- | --- | --- |
| B1 | 1.3 to 7.22 | 403000 to 837000 |
| B2 | 0.83 to 2.79 | 83200 to 274000 |
